Experiment [1] concerns the target CA724 胃癌抗原 (B72.3抗原). Kind of experiment: direct ELISA, antigen coated at 100 ng/mL, pNPP substrate read through the fused AP; still in linear range, no plateau.
Experiment [2] addresses CA724 胃癌抗原 (B72.3抗原). Kind of experiment: ELISA, antigen coated at 100 ng/mL, HRP goat anti-mouse Fab secondary, OD450. For orientation: ELISA stands for enzyme-linked immunosorbent assay.
For experiment [3], the target named is CA724 胃癌抗原 (B72.3抗原). Kind of experiment: direct ELISA, antigen coated at 100 ng/mL, pNPP substrate read through the attached ALP; plateau value.

Fab抗体与碱性磷酸酶融合蛋白(Fab)2-AP (CA724-B72.3 Fab fused to calf intestinal alkaline phosphatase, Fab:AP monomer 1:1), sequence (light, form in doubt): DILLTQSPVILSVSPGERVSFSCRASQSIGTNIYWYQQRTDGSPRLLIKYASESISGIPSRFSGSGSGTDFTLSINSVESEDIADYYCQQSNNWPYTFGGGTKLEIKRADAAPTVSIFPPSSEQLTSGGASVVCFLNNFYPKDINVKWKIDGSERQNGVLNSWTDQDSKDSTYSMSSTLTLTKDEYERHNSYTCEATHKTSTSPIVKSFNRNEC

Substance “Fab抗体与碱性磷酸酶融合蛋白(Fab)2-AP (CA724-B72.3 Fab fused to calf intestinal alkaline phosphatase, Fab:AP monomer 1:1)” showed a 吸光值 (405nm) with CA724 胃癌抗原 (B72.3抗原) [1] of 1.2 OD405.

For “对照抗体化学标记ALP蛋白 (CA724-B72.3 antibody chemically labelled with alkaline phosphatase)”, in the experiment with CA724 胃癌抗原 (B72.3抗原) [2], the fold decrease of high-end antibody activity (against the original antibody / fusion protein) was 1 倍. In the experiment with CA724 胃癌抗原 (B72.3抗原) [3], the 最高吸光值 (405nm) was determined as 0.8 OD405.
